{"source": "paper PMC7241105", "about": "(bioRxiv, 2020)", "binders": {"B1": {"name": "CV43 (antibody, V domains shown)", "VH": "QVQLVESGGGVVQPGRSLRLSCAASGFTFSSYAMHWVRQAPGKGLEWVAVISYDGSNKYYADSVKGRFTISRDNSKNTLYLQMNSLRAEDTAVYYCARVTVVHFDYWGQGTLVTVSS", "VL": "NFMLTQPHSVSESPGKTVTISCTGSSGSIASNYVQWYQQRPGSAPTTVIYEDNQRPSGVPDRFSGSIDSSSNSASLTISGLKTEDEADYYCQSYDSSNWVFGGGTKLTVL"}, "B2": {"name": "CV5 (antibody, V domains shown)", "VH": "QVQLVQSGAEVKKPGASVKVTCKASGYTFTSYYLHWVRQAPGQGLEWMGIINPSGGTTSYAQKFQGRVTMTRDTSTSTVYMELSSLRSEDTAVYYCARAGRRYSSSDDGAFDIWGQGTMVTVSS", "VL": "not shown"}}, "biological_target": "SARS-CoV-2 receptor binding domain (RBD) (SARS-CoV-2, UniProt P0DTC2)", "test": "BLI", "data": [{"binder": "B1", "values": [{"measurement": "binding result", "result": "binds"}]}, {"binder": "B2", "values": [{"measurement": "binding result", "result": "binds"}]}]}
